Molecular target: Xanthamonas campestris p.v. campestris Class 2 OLD protein, full-length (Xcc^FL, residues 1-595) (Xanthamonas campestris p.v. campestris)
Experiment: SEC-MALS

Xanthamonas campestris p.v. campestris Class 2 OLD protein, full-length (Xcc^FL, residues 1-595) (enzyme)
stoichiometry N: 4

From article PMC6755086
